Literature values as cited in patent US20050176623A1, “Non-invasive treatment of disease using amphipathic compounds” (priority 2004, published 2005).

Settings: fractional catabolic rate, kidney

apolipoprotein A-I [apoA-I]
normal clearance of apoA-I: approximately 0.3 pools/day
